Measurements: article PMC5734611 (Nature nanotechnology, 2016)

Molecular target: the molecule itself
Assay: high-speed atomic force microscopy

B1: bacterial glycerol uptake facilitator GlpF (natural protein)
chain: MSQTSTLKGQSIAEFLGTGLLIFFGVGSVAALKVAGASFGQWEISVIWGLGVAMAIYLTAGVSGAHLNPAVTIALWLFASFDKRKVIPFIVSQVAGAFSAAALVYGLYYNLFFDFEQTHHIVRGSVESVDLAGTFSTYPNPHINFVQAFAVEMVITAILMGLILALTDDGNGVPRGPLAPLLIGLLIAVIGASMGPLTGFAMNPARDFGPKVFAWLAGWGNVAFTGGRDIPYFLVPLFGPIVGAIVGAFAYRKLIGRHLPCDICVVEEKETTTPSEQKASL
modifications: Atto 488 maleimide on cysteines (C261 and C264)
stoichiometry N: 4
